For two substances, stoichiometry N results are on record in PMC2632915.

Broadly, the stoichiometry N is the number of molecules, sites or subunits per partner or assembly.

The target in experiment [1] is Hera_208–419 (C-terminal RecA domain and dimerization domain of T. thermophilus Hera) (Thermus thermophilus). Put plainly: SEC. (In gel filtration, larger molecules generally elute earlier.)
For experiment [2] the target is unchanged. The experiment is described as follows: crystal structure.
Experiment [3] shares this target. Put plainly: SEC. This is another data set of the same source.
The target in experiment [4] is Hera_208–510 (C-terminal RecA domain, dimerization domain and RNA-binding domain of T. thermophilus Hera) (Thermus thermophilus). The experiment is described as follows: SEC.

Regarding “Hera_208–419 (C-terminal RecA domain and dimerization domain of T. thermophilus Hera) (domain or fragment)”, the stoichiometry N in experiment [1], in experiment [2] and in experiment [3] was 2 in each case.

With “Hera_208–510 (C-terminal RecA domain, dimerization domain and RNA-binding domain of T. thermophilus Hera) (domain or fragment)”, the stoichiometry N in experiment [4] amounted to 2.
